According to publication PMC7082075:
Several values for one entry are separate records, joined by “and”; a condition that tells them apart may be missing. Equal values may be shown once.

Assays:
[1] = molecular target: PX domain of SNX5 (SNX5^PX) (UniProt Q9Y5X3); test: ITC; Fig 1D: approximately 2–3 mM of peptides titrated into SNX5^PX (300 μM); 100 mM HEPES pH 7.5, 300 mM NaCl, 2 mM βME, 25°C; one set of sites model; single values of triplicates
[2] = molecular target: PX domain of SNX5 (SNX5^PX) (UniProt Q9Y5X3); test: ITC; S4C Fig: approximately 0.5–1 mM of CI-MPR (aa21–48) WT or loop-deletion peptides titrated into SNX5^PX (50 μM); 100 mM HEPES pH 7.5, 300 mM NaCl, 2 mM βME, 25°C; one set of sites model; single values of triplicates
[3] = molecular target: PX domain of SNX32 (SNX32^PX); test: ITC; S1B Fig: approximately 2–3 mM of CI-MPR (aa21–48) peptide titrated into approximately 100–300 μM of SNX5^PX, SNX6^PX or SNX32^PX; 100 mM HEPES pH 7.5, 300 mM NaCl, 2 mM βME, 25°C; one set of sites model; single values of triplicates
[4] = molecular target: PX domain of SNX5 (SNX5^PX) (UniProt Q9Y5X3); test: as above
[5] = molecular target: PX domain of SNX6 (SNX6^PX) (UniProt Q9UNH7); test: as above
Sequence of PX domain of SNX6 (SNX6^PX) (Q9UNH7 26-173): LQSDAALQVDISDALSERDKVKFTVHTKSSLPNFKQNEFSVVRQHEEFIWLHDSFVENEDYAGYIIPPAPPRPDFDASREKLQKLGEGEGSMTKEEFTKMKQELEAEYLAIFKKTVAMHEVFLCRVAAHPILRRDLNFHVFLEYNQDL

[6] = molecular target: PX domain of SNX5 (SNX5^PX) (UniProt Q9Y5X3); test: ITC; Fig 2B: CI-MPR (aa21–48) WT or alanine mutants titrated into SNX5^PX; 100 mM Hepes pH 7.5, 300 mM NaCl, 2 mM βME, 25°C; single values of triplicates
SNX5^PX [7] = molecular target: SNX5^PX (UniProt Q9Y5X3); test: ITC; loop length: approximately 0.5–1 mM peptide titrated into SNX5^PX (50 μM); 100 mM HEPES pH 7.5, 300 mM NaCl, 2 mM βME, 25°C (S4C Fig)
Sequence of SNX5^PX (Q9Y5X3 20-180): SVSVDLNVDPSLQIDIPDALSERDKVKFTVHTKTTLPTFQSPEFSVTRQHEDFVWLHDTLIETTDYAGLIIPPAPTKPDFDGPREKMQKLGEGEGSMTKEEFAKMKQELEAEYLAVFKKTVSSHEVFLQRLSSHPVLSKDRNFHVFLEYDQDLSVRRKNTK

[8] = molecular target: SNX3-retromer complex (Retromer + SNX3) (UniProt Q96QK1); test: ITC; approximately 2–3 mM peptide titrated into SNX5^PX (300 μM) or the SNX3-retromer complex (10 μM Retromer + 100 μM SNX3); 100 mM HEPES pH 7.5, 300 mM NaCl, 2 mM βME, 25°C; one set of sites model (Fig 1D, 1E, 2B)
SNX5^PX [9] = molecular target: SNX5^PX (UniProt Q9Y5X3); test: as above
SNX6^PX = SNX6^PX (UniProt Q9UNH7); test: ITC; approximately 2–3 mM CI-MPR (aa21–48) titrated into approximately 100–300 μM SNX5^PX, SNX6^PX or SNX32^PX; 100 mM HEPES pH 7.5, 300 mM NaCl, 2 mM βME, 25°C (S1B Fig)
SNX32^PX = test: as above
SNX5^PX [10] = molecular target: SNX5^PX (UniProt Q9Y5X3); test: as above

Sequence of PX domain of SNX5 (SNX5^PX) (Q9Y5X3 25-172): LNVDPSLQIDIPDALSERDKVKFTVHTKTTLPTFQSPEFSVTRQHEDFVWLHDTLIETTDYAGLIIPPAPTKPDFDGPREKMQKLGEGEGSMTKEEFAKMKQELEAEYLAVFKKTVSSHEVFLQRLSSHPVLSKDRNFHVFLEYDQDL

## CI-MPR (aa21–48) peptide, wild type
[1]
  Kd: 13 µM and 22 µM and 19 µM
[2]
  Kd: 9 µM and 26 µM and 19 µM
[3]
  Kd: 18 µM and 15 µM and 21 µM
[4]
  Kd: 22 µM and 17 µM and 15 µM
[5]
  Kd: 44 µM and 36 µM and 28 µM
[6]
  Kd: 18 µM and 11 µM and 25 µM

## CI-MPR peptide (aa21–48)
SNX5^PX [7]
  Kd: 18 µM
[8]
  Kd: > 400 µM
SNX5^PX [9]
  Kd: 18 µM
SNX6^PX
  Kd: 36 µM
SNX32^PX
  Kd: 18 µM
SNX5^PX [10]
  Kd: 18 µM
